# Measurements published in US20030148264A1, “Phage displayed PDZ domain ligands” (GENENTECH, INC., priority 2001, published 2003).
# Read-outs that look alike come from different tables or passages of the source. Where a SMILES comes first, the peptide text is derived from it. Where no end group is shown, it is not given here.
# T1: MAGI 3 PDZ2 (Homo sapiens, UniProt Q5TCQ9)
# T1 sequence (Q5TCQ9 584-707 isoform Q5TCQ9-2): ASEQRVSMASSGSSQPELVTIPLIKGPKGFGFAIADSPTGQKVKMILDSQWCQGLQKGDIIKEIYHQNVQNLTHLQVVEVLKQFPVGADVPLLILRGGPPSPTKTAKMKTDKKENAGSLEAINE
# T2: Human Scribble (KIAA0147, NP_056171.1) PDZ2 (aa 788-913) (Homo sapiens, UniProt Q14160)
# T2 construct: Human Scribble (KIAA0147, NP_056171.1) PDZ2 (aa 788-913); GST; made in house
# T2 sequence (Q14160 788-913 isoform Q14160-2): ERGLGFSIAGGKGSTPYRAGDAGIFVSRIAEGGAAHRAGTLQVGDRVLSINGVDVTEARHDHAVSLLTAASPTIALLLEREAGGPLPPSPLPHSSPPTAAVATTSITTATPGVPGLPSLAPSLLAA
# Key:
# Magi1 PDZ3 = assay: IC50 (nM) | Magi1 PDZ3 | 0.625 nM | B01-87 | Bio-GGWFLDV (SEQ ID NO 686) | 15.62 nM
# Protocol: (§1) Table printed on a drawing sheet, Fig. 12
# Head of the field: IC50 (nM) | Magi1 PDZ3 | 0.625 nM | B01-87 | Bio-GGWFLDV (SEQ ID NO 686) | 15.62 nM
# (§2) The patent's description of the figure: FIG. 12. IC50 values indicating binding affinities of various peptides to PDZ domains
# (§3) First copying reader's note: The first column (three lines per block: protein, accession, PDZ domain) is treated as one cell spanning its block; an empty ruled row above the IC50/SD head is left out; #### cells are spreadsheet overflow marks as printed; several heads and cells are cut off at the left by the print (ample, eptide No, EQ ID NO).
# Where the first naming reader finds the target: head: IC50 (nM) | Magi1 PDZ3 | 0.625 nM | B01-87
# MAGI 3 PDZ2 = target: T1, MAGI 3 PDZ2; assay: Competition ELISA, peptide blocking PDZ domain binding to immobilized peptide; design: made in house; host or cells: E. coli
# Source text: (§4) Many methods are known and can be used to identify the binding affinities of PDZ domain binding ligands (e.g. peptides, proteins, small mollecules, etc.); for example, binding affinities can be determined as IC50 values using competition ELISAs. The IC50 value is defined as the concentration of ligand which blocks 50% of PDZ domain binding to a ligand. For example, in solid phase assays, assay plates may be prepared by coating microwell plates (preferably treated to efficiently absorb protein) with neutravidin, avidin or streptavidin. Non-specific binding sites are then blocked through addition of a solution of bovine serum albumin (BSA) or other proteins (for example, nonfat milk) and then washed, preferably with a buffer containing a detergent, such as Tween-20. A biotinylated known PDZ-domain ligand (for example, the phage peptides or cognate protein as fusions with GST or other such molecule to facilitate purification and detection) is prepared and bound to the plate. Serial delutions of the ligand to be tested with a PDZ domain polypeptide arc prepared and contacted with the bound ligand. The plate coated with the immobilized ligandis washed before adding each binding reaction to the wells and briefly incubated. After further washing, the binding reactions are detected, often with an antibody recognizing the non-PDZ fusion partner and a labeled (such as horseradish peroxidase (HRP), alkaline phosphatase (AP), or a fluorescent tag such as fluorescein) secondary antibody recognizing the primary antibody. The plates are then developed with the appropriate substrate (depending on the label) and the signal quantified, such as using a spectrophotometric plate reader. The absorption signal may be fit to a binding curve using a least squares fit. Thus the ability of the various ligands to inhibit PDZ domain from binding a known PDZ-domain ligand can be measured.
# Prokaryotic: The ERBIN PDZ domain (aa. 1217-1371 of SEQ ID NO:201) or MAGI-3 PDZ 2 (aa. 584-707 of SEQ ID NO:200) were cloned into the EcoR 1/Not 1 or BamH 1/Not 1 sites of pGEX 6P-1 and pGEX 4T-3 E. coli expression vectors (Pharmacia) respectively. Expression and affinity purification of E coli expressed GST-proteins was performed as recommended by the manufacturer (Pharmacia).
# (§5) Peptides corresponding to the selected sequences were synthesized and assayed for binding (Table 2). […] The data also confirmed that the minimal tetrapeptide selectants from the PDZ2 sort bind PDZ2 with high affinity. […] It appears that this large difference in binding affinity is attributable to the residue at P(−1), which is a Trp in the selected peptide as opposed to a Lys in PTEN/MMAC (compare HTQITWV with HTQITKV (SEQ ID NO:220), Table 2; The IC50 values are the concentrations of peptide that blocked 50% of PDZ domain binding to immobilized peptide in an ELISA).
# Erbin PDZ = target: T3, Erbin PDZ (Homo sapiens, UniProt Q96RT1); assay: IC50 (nM) | Erbin PDZ | 2 nM | PDZ501 | Bio-Ac-GGWETWV (SEQ ID NO 687) | 37 nM
# T3 construct: made in house; host or cells: E. coli
# Protocol: as §1, §2, §3
# Where the first naming reader finds the target: head: IC50 (nM) | Erbin PDZ | 2 nM | PDZ501
# MAGI 3 PDZ3 = target: T4, MAGI 3 PDZ3 (Homo sapiens, UniProt Q5TCQ9); assay: Competition ELISA, peptide blocking PDZ domain binding to immobilized peptide
# T4 construct: PDZ2 and PDZ3 were purified as glutathione S-transferase (GST) fusions from E coli; GST; made in house; host or cells: E. coli
# Source text: as §4, §5
# [1] = target: T2, Human Scribble (KIAA0147, NP_056171.1) PDZ2 (aa 788-913); assay: Carboxyl-terminal phage display binding selection; conditions: number of phage-selected clones with this sequence, siblings counted as individuals
# Source text: Phage display technology was further employed essentially as described above, with minor modifications, to select ligands of a variety of PDZ domains (including additional, independent rounds of selection for ERBIN PDZ and MAGI3 PDZ3). Briefly, peptide ligands were selected from pools of randomized peptides. […] The peptides were fused to the M13 phage major coat proteins such that the C-termini of the randomized peptides were free and available for binding. PDZ domains were utilized as their GST-fusions (referred to in this Example simply as “PDZ domains”). The particular amino acids comprising each PDZ domain target are indicated in the heading of Tables 11-29.
# Peptide ligands were selected and identified for 17 (18 including ERBIN) PDZ domains. […] At the bottom of each table, the occurrence of each amino acid residue is expressed as a percentage of the total number of residues in the relevant position. Siblings (peptides with identical DNA that appear as more than one copy) were counted as individuals. The numbers for occurrence were corrected for codon usage. The relative codon usage is indicated after each amino acid in the header of the bottom section of each table. “n” refers to the number of sequences (siblings counted as individuals) on which the occurrence value is based; this number is also shown as normalized with respect to codon usage.
# [2] = target: GST-MAGI-3 PDZ 2 (aa. 584-707 of SEQ ID NO:200) (human) [GST: P08515]; assay: alanine scan, competition ELISA
# [3] = target: GST-MAGI-3 PDZ 2 (aa. 584-707 of SEQ ID NO:200) (human) [GST: P08515]; assay: competition ELISA: peptide blocks GST-PDZ binding to immobilized peptide
# hZO1 PDZ1 [4] = target: T5, hZO1 PDZ1 (Homo sapiens, UniProt Q07157); assay: IC50 (nM) | hZO1 PDZ1 | 5 nM | B01-88 | Bio-GGWRWTTWL (SEQ ID NO: 684) | 36 nM
# T5 construct: Human ZO1 (NM_003257) PDZ1; GST; made in house
# Protocol: Table printed on a drawing sheet, FIG. 12A
# Head of the field: IC50 (nM) | hZO1 PDZ1 | 5 nM | B01-88 | Bio-GGWRWTTWL (SEQ ID NO: 684) | 36 nM
# as §2
# First copying reader's note: Upper left part of a table split over FIG. 12A-12D; further receptor columns and further peptides are on the other sheets.
# (§6) Where the first naming reader finds the target: head: IC50 (nM) | hZO1 PDZ1 | 5 nM | B01-88
# hZO1 PDZ1 [5] = target: T5, hZO1 PDZ1; assay: IC50 (nM) | hZO1 PDZ1 | 5 nM | B01-88 | Bio-GGWRWTTWL (SEQ ID NO 684) | 36 nM
# Protocol: as §1
# Head of the field: IC50 (nM) | hZO1 PDZ1 | 5 nM | B01-88 | Bio-GGWRWTTWL (SEQ ID NO 684) | 36 nM
# as §2, §3, §6
# [6] = target: T6, ERBIN PDZ-GST fusion protein (aa. 1217-1371 of SEQ ID NO:201) (human, UniProt P08515 1-218 = GST); assay: competition ELISA: ERBIN PDZ-GST binding to immobilized biotin-WETWV
# [7] = target: T6, ERBIN PDZ-GST fusion protein (aa. …); assay: as above; remark: listed apart in the source
# [8] = target: T6, ERBIN PDZ-GST fusion protein (aa. …); assay: as above; remark: listed apart in the source
# [9] = MAGI 3 PDZ2, concentration of peptide that blocked 50% of PDZ domain binding to immobilized peptide in an ELISA, read-out: IC50 (μM) PDZ2
# [10] = MAGI 3 PDZ3, concentration of peptide that blocked 50% of PDZ domain binding to immobilized peptide in an ELISA, read-out: IC50 (μM) PDZ3
# T4 sequence (Q5TCQ9 726-808 limits assumed): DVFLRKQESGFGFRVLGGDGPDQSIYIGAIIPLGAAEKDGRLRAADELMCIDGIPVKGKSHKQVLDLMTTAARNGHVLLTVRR
# T6 sequence (P08515 whole entry, the tested form may be a part): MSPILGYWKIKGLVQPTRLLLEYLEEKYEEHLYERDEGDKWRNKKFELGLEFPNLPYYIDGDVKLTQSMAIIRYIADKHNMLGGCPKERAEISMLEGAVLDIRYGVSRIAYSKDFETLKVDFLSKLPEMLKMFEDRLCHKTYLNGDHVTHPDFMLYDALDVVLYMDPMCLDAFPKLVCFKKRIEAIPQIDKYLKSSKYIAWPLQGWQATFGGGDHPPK
# Sequence of GST-MAGI-3 PDZ 2 (aa. 584-707 of SEQ ID NO:200) (human) [GST: P08515] (P08515 whole entry): as the sequence (P08515 whole entry, the tested form may be a part) above
# T3 sequence (Q96RT1 1258-1412): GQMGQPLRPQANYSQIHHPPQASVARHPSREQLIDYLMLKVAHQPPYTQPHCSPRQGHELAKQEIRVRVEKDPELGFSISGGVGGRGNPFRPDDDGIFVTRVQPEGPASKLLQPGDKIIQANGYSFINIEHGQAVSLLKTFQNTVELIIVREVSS
# T5 sequence (Q07157 23-110): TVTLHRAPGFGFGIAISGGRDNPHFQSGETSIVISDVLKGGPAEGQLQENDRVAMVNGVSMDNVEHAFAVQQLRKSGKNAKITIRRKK
molecule,measurement,setting,value
EQ ID NO 649 N^AC-YRWTTWL (Ac-YRWTTWL) [10 | 01-28],IC50,Magi1 PDZ3,32600 nM
GCGCSWV,IC50,MAGI 3 PDZ2; [9],2 µM
"AWFDTDL [2 | 01-61, SEQ ID NO 641 AWFDTDL]",IC50,Magi1 PDZ3,18200 nM
same,IC50,Erbin PDZ,25400 nM
"HTQITKV [HTQITKV, reference compound]",IC50,MAGI 3 PDZ3; [10],> 1000 µM
same,IC50,MAGI 3 PDZ2; [9],200 µM
ASKVTWV [ASKVTWV],IC50,MAGI 3 PDZ3,> 1000 µM
same,IC50,MAGI 3 PDZ2,0.8 µM
"AWFETWV [phage-selected peptide, Scribble PDZ2]",occurence,[1],2
"ESVRGFDTWV [phage-selected peptide, Scribble PDZ2]",occurence,[1],1
EQ ID NO 648 N^AC-WRWTTWL (Ac-WRWTTWL) [9 | 01-103],IC50,Magi1 PDZ3,180 ± 59 nM
"HRVRETWV [phage-selected peptide, Scribble PDZ2]",occurence,[1],21
TRWWFDI-OH [TRWWFDI],IC50,MAGI 3 PDZ3; [10],0.9 µM
same,IC50,MAGI 3 PDZ2; [9],> 1000 µM
HTQITWV [HTQITWV],IC50,MAGI 3 PDZ2; [9],0.3 µM
"Ac-WFLWI [34 | 01-12, SEQ ID NO 673 NAC-WFLWI]",IC50,Magi1 PDZ3,34700 nM
same,IC50,Erbin PDZ,> 400000 nM
SEQ ID NO 671 NAC-WFLDI [32 | 01-14],IC50,Magi1 PDZ3,408 ± 50 nM
CSWA (peptide),fold reduction in binding against CSWV,[2],> 100 fold
same,IC50,[3],400 µM
"Ac-WRWTTWV [13 | 01-31, EQ ID NO 652 N^AC-WRWTTWV]",IC50,Magi1 PDZ3,32600 nM
same,IC50,Erbin PDZ,789 ± 62 nM
"Ac-WRWTTWV [13 | 01-31, SEQ ID NO: 652: N^AC-WRWTTWV]",IC50,hZO1 PDZ1 [4],0.0443 nM
"Ac-WRWTTWL [9 | 01-103, SEQ ID NO: 648: N^AC-WRWTTWL]",IC50,hZO1 PDZ1 [4],27 nM
"LTVRETWV [phage-selected peptide, Scribble PDZ2]",occurence,[1],4
"Ac-YRWTTWL [10 | 01-28, SEQ ID NO: 649: N^AC-YRWTTWL]",IC50,hZO1 PDZ1 [4],31 nM
"Ac-WFLDA [42 | 01-22, SEQ ID NO 681 NAC-WFLDA]",IC50,Magi1 PDZ3,410 ± 72 nM
same,IC50,hZO1 PDZ1 [5],21800 nM
"RSRYRFTDV [phage-selected peptide, Scribble PDZ2]",occurence,[1],6
"CC[C@H](C)[C@H](N)C(=O)N[C@H](C(=O)N[C@@H](CCCCN)C(=O)N[C@H](C(=O)O)C(C)C)[C@@H](C)O [ITKV, reference compound] (H-ITKV-OH; N-terminus and C-terminus assumed)",IC50,"MAGI 3 PDZ2; MAGI 3 PDZ2 domain, read-out: IC50",200 µM
"RKSRTFETWV [phage-selected peptide, Scribble PDZ2]",occurence,[1],1
DGICSWV [DGICSWV],IC50,MAGI 3 PDZ3,> 1000 µM
same,IC50,MAGI 3 PDZ2,0.3 µM
ASWV (peptide),fold reduction in binding against CSWV,[2],25 fold
same,IC50,[3],35 µM
TRWWFDI-NH2 [TRWWFDI-NH2],IC50,MAGI 3 PDZ3; [10],300 µM
CSAV (peptide),fold reduction in binding against CSWV,[2],> 100 fold
same,IC50,[3],200 µM
"Ac-FETDL [1 | 01-104, SEQ ID NO 640 N^AC-FETDL]",IC50,Magi1 PDZ3,91500 nM
same,IC50,Erbin PDZ,101000 nM
CAWV (peptide),fold reduction in binding against CSWV,[2],5 fold
same,IC50,[3],7.3 µM
"STGKFFDTWV [phage-selected peptide, Scribble PDZ2]",occurence,[1],1
Ac-WESWV [Ac-WESWV],IC50,[6],2.5 µM
same,fold less potent than Ac-WETWV,[6],5.2 fold
Ac-WDTWV [Ac-WDTWV],IC50,[6],1.7 µM
same,fold less potent than Ac-WETWV,[6],3.4 fold
Ac-WETYV [Ac-WETYV],IC50,[7],42.5 µM
same,fold less potent than Ac-WETWV,[7],86.7 fold
Ac-WETAV [Ac-WETAV],IC50,[8],34 µM
same,fold less potent than Ac-WETWV,[8],69.3 fold
same,IC50,[7],34 µM
same,fold less potent than Ac-WETWV,[7],69.3 fold
Ac-WETFV [Ac-WETFV],IC50,[7],14.5 µM
same,fold less potent than Ac-WETWV,[7],295 fold
Ac-WEVWV [Ac-WEVWV],IC50,[6],4.8 µM
same,fold less potent than Ac-WETWV,[6],9.8 fold
